Measurements: US20200277376A1 (SUZHOU STAINWEI BIOTECH, published 2020)
One block for each molecule: values may come before it.

What was measured:
[1] = biological target: recombination human PD-1 extracellular protein (Sino Biological Inc.) (human) (UniProt Q15116); assay: competitive ELISA, plate coated with human PD-1 protein; competitor biotin-hAb21
[2] = biological target: T1, human PD-1 on cells (CHO cells stably expressing human PD-1) (human, UniProt Q15116 25-288); assay: flow cytometry on CHO/PD-1 cells
T1 construct: whole, on cells; also called CHO/PD-1; CHO-PD-1
T1 sequence (Q15116 25-288): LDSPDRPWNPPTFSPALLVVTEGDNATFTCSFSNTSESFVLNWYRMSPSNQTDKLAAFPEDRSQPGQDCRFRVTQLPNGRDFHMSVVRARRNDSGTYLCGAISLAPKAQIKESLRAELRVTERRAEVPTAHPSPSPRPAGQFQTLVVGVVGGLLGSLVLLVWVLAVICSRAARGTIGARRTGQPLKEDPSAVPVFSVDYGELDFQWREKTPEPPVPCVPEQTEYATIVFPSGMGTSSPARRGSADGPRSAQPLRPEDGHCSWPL

Sequence of recombination human PD-1 extracellular protein (Sino Biological Inc.) (human) (Q15116 25-170): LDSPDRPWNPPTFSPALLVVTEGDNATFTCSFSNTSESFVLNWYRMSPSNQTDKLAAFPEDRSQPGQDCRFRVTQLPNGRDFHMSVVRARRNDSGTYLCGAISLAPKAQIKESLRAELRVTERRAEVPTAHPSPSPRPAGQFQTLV

antagonizing/inhibiting ratio [1]: 70%
Molecule: MK3475+Nivo (Nivolumab and MK3475 added together)

binding result [2]: binds
B1: human PDL2-Fc fusion protein (Fc fusion, UniProt Q9BQ51 20-219, looked up, not shown: a dimerising Fc or GST)
chain: LFTVTVPKELYIIEHGSNVTLECNFDTGSHVNLGAITASLQKVENDTSPHRERATLLEEQLPLGKASFHIPQVQVRDEGQYQCIIIYGVAWDYKYLTLKVKASYRKINTHILKVPETDEVELTCQATGYPLAEVSWPNVSVPANTSHSRTPEGLYQVTSVLRLKPPPGRNFSCVFWNTHVRELTLASIDLQSQMEPRTHP
notes: also called biotin-PDL2-Fc; Biotin-PDL2Fc
